In patent US20150104459A1 (published 2015):
Substitutions are numbered along the chain they refer to.

B1: TCN-552 (5249_I23) (antibody, V domains shown)
VH: QVQVVQSGAEVKKPGSSVRVSCQASGGTFMNYAIIWVRRAPGQGLEWMGGIIPVFPTPNYAQMFQGRVTISTDESRSTSFLELTNLRYEDTAVYYCARRIYHGGNSGFDFWGQGTLVTVSS
VL: EIVLTQSPATLSLSPGERATLSCRASQSVGNYLAWYQQKPGQAPRLLIYDSSNRAPGIPARFSGSGSGTDFTLTISSLAPEDFAVYYCQQRSKWPPMYSFGHGTKLEIK
B2: TCN-554 (5277_M05) (antibody, V domains shown)
VH: QVQLVQSGADLKKPGASVKVSCKASGYTFTDYYIHWVRQAPGQGLEWMGWINPESGDTKYAQKFQGRVTMTRDTSITTAYMELGRLRSDDTAVYYCARDVSTTWSWFAPWGQGTLVTVSS
VL: DIVMTQSPDSLAVSLGERATINCRSSQSIFHNSNNENYLAWYQQKPGQPPKLLIYWASTRESGVPDRFSGSGSGTDFTLTISSLQAEDVAVYFCQQYYNAPLTFGGGTKVEIK
B3: TCN-553 (5261_C18) (antibody, V domains shown)
VH: QVQVVQSGTEVKKPGSSVKVSCQTSGGRFMSYAITWVRQAPGQGLEWMGGIVPVFGTANYAQKFQGRVTITTDDSTRTAYMELSSLRSEDTAVYYCGFRYGSGYGFDSWGQGTLVTVSS
VL: EIVLTQSPGTLSLSPGERATLSCRASQSVSSSYLAWYQKKPGQAPRLLIYGASTRATGIPDRFTGSGSGTDFTLSISRLEPEDFAVYYCQHFGTSVFTFGGGTKVEIK
B4: TCN-551 (5243_D01) (antibody, V domains shown)
VH: EVQLVQSGSEVKKPGESLKISCKGSGYSFSNYWIGWVRHMPGKGLEWMGIIYPGDSDTRYSPSFQGQVTMSADKSSSTVYLQWSSLKASDTAIYYCARRGGHSFGYGSGGDTHSEFDSWGQGTLVTVSS
VL: QSVLTQSPSVSAAPGQKVTISCSGSDSNIGDYFVCWYQHLPGKPPQLLIYENNKRPSGIPDRFSGSKSGTSATLGITGIQTGDEADYYCATWDGSLSAWVFGGGTKLTVL
B5: TCN-560 (5084_P10) (antibody, V domains shown)
VH: EVQLVESGGGLVQPGGSLRLSCAASGFIFRNYWMSWVRQAPGKGLEWVANIKQDGREKYYVDSLRGRVNISRDNAENSLYLHMNSLRVEDTAVYFCARARMVVVTGDGFDVWGHGTMVTVSS
VL: DIQMTQSPSSLSASVGDRVTITCRASQNIKRYFNWYQQKPGKAPKLLIYAASNLENGVPSRFSGSGSGTDFTLTISSLQPEDFATYYCQQSFSKSWTFGQGTNVDIK
B6: TCN-523 (5248_A17) (antibody, V domains shown)
VH: QVQLVQSGAEVKKPGSSVKVSCKASGGSFSNYAFSWVRQAPGQGLEWMGGTIPLLGTTNYAQKFQGRVTISADQFTSTAYMELGSLRSEDTAVYYCTRRKMTTAFDSWGQGTLVTVSS
VL: QPVLTQPPSASASLGASVTLTCTLSSAYSNYKVDWYQQRPGKGPRFVMRVGTGGIVGSKGDGIPDRFSVLGSGLNRYLTIKNIQEEDESDYHCGADHGSGSNFVSPYVFGGGTKLTVL
B7: TCN-555 (5246_L16) (antibody, V domains shown)
VH: QVQLVQSGAEVKRPGSSVKVSCTASGGIFRKNAISWVRQAPGQGLEWMGGIIAVFNTANYAQKFQNRVKITADESGNTAYMELSSLTSDDTAVYYCASHPKYFYGSGSYPDFWGQGTLVTVSS
VL: QSALTQPRSVSGSPGQSITISCTGGSSDIGASNSVSWYQQHPGKAPKLVIFDVTERPSGVPHRFSGSKSGNTASLTVSGLQPDDEADYFCCAYGGKYLVVFGGGTKVTVL
B8: TCN-563 (5237_B21) (antibody, V domains shown)
VH: B7 VH with V5A, N66G, T87R
VL: B7 VL with I18V, G25S, I29V, F51Y, D83E
B9: TCN-534 (5249_B02) (antibody, V domains shown)
VH: QVQLVQSGAEVKKPGSSVKVSCRESGGTFNGYTITWVRQAPGQGLEWMGGIIPMMGTVNYAQKLQGRVTITTDYFTKTAYMDLNNLRSEDTAMYYCVKIRYTGQQLLWGQGTLVTVSS
VL: DIQMTQSPSTLSASIGDRVTITCRASQSIASWLAWYQQKPGKAPKLLIYEAVNLESGVPSRFSGSGSGTDFTLTISSLQPDDFATYFCQHYGTISQTFGGGTKVEIK
B10: TCN-537 (3194_D21) (antibody, V domains shown)
VH: QVQLQQWGSGLLKPSETLSLTCAVYGGSFRDDYWTWIRQPPGKGLEWIGEINHSGRTNYNPSLKSRVTISVDTSLKQFSLKVISVTAADTAVYYCARGTSHVSRYFDWLPPTNWFDPWGQGTQVTVSS
VL: DIVLTQSPGTLSLSPGERATLSCRASQSVSSSYLAWYQQKPGQAPRLVMYGAATRATGIPDRFSGSGSGPDFTLTISRLEPEDFAMYYCQQYGNSPITFGQGTRLEIK
B11: TCN-536 (5095_N01) (antibody, V domains shown)
VH: QVQLQQWGAGLLKPSETLSLTCAVYGGSFSVSGYYWSWIRQPPGRGLEWIGEISHGGSTNYNPSLKSRVTISVDTTKNQFSLRLSSVTAADTAVYYCARGTDPDTEVYCRVGNCAAFDYWGQGSLVTVSS
VL: EIILAQSPGTLSLSPGERATLSCRASQFVSTRSLAWYQQRPGQAPRLLIYGASSRATGIPDRFSGSGSGTDFTLTISRLEPEDFAVYYCQHYGYSPRYAFGQGSKVEIK
B12: TCN-535 (5246_P19) (antibody, V domains shown)
VH: QVQLVQSGSEVKKPGTSVKVSCTASGSVFTNYGISWVRQAPGQGLEWMGGIIPLFGAAKYAQKFQGRVTITADESTKTVYMELSRLTSKDTAIYFCAKAPRVYEYYFDQWGQGTPVTVSS
VL: EIVLTQSPGTLSLSPGERATLSCRASQSVSSSQLAWYQQKPGQAPRLIIYGASTRATGIPDRFSGSGSGTDFTLTIGRLEPEDFAVFFCQQYSTSPPTFGQGTKVDFK
B13: TCN-540 (5060_F05) (antibody, V domains shown)
VH: QVQLVQSGGGVVQPGRSLRLSCAASGFTFSSYAMHWVRQAPGKGLEWVAIISYDGNDQYYTDSVKGRFTISRDSSKVYLQMHRLRPEDTAVYYCAKEFETSGYFHGSFDYWGQGILVTVSS
VL: QSALTQPASVSGSPGQSITISCTGTSSDVGGYNYVSWYQQHPGKAPKLLIYEVTNWPSGVSNRFSGSKSGNTASLTISGLQAEDEADYYCSSYAGSSTWVFGGGTRVTVL
B14: TCN-543 (5081_G23) (antibody, V domains shown)
VH: QVHLVQSGAEVRKPGDSVKVSCKTSGYTFSTYPVAWVRQVPGQGLEWMGWISTYNGNTNFAQNFQGRVTLTTDTTTNTAYMEVRSLKFDDTAVYYCARVEGSYRDFWNNQNRFDPWGQGTLVTVSS
VL: SYVLTQPPSVSVAPGQTARISCGGSNIGGKSVHWYQQKPGQAPVLVVYDDSGRPSGIPERFSGSNSGDTATLTISRVEAGDEADYFCQVWDNFGGVFGTGTKVTVL
B15: TCN-545 (5082_I15) (antibody, V domains shown)
VH: QVQLQQWGAGLLKPSETLSLSCAVFGGSFSDYYWTWIRQPPGKGLEWIGEIKHSGRTNYNPSLESRVTISVDTSKNQFSLKLSSVTAADTAIYYCARGTDPDTEGYCRSGSCSAFDFWGQGTLVTVSS
VL: EIVLTQSPGTLSLSPGERATLSCRASHFVNYRSLAWYQQTPGQVPRLLIYGASTRATGIPDRFSGSGSGTDFTLTISRLEPEDFAVYFCQQYGGSPRYTFGQGTRLEIK
B16: TCN-538 (3206_O17) (antibody, V domains shown)
VH: QITLKESGPTLVKPTQTLTLTCVFSGFSLSITGVRVGWIRQPPGKALEWLALISWDDEKHYSPSLQSRLTITKDTSKNQVVLTMTNLDPVDTATYYCARSTDRGHVLRYFGWMLPGDAFDVWGQGTMVTVSS
VL: DIVMTQSPDFLPVSLGERATINCKSSQRVLYSSNNKNYLAWYQLKPGQPPKLIIYWASTRESGVPDRFSGSGSGTEFTLTISSLQAEDVAVYYCQQYYSRPYTFGQGTKLEIK
B17: TCN-544 (5082_A19) (antibody, V domains shown)
VH: QVQLQESGPGLVKPSETLSLTCTVSRGSIGHYFWSWIRQPPGKGLEWIGYISYSGSTKYNPSLRSRVTISVDTSKNQFSLNLNSVTATDTALYYCAREDYDILTGAGPGMEVWGQGTTVTVSS
VL: QSMLTQPPSASGTPGQRVTISCSGSSSNIGSNTVNWFKHLPGTAPKLLIYRNDLRPSGVPDRFSGSKSGTSASLAISGLQSEDEADYYCATWDDSLNGFYVFGTGTKVTVL
B18: TCN-554 (5277_M05) (antibody, V domains shown)
VH: B2 VH
VL: B2 VL
B19: TCN-550 (5096_F06) (antibody, V domains shown)
VH: QVQLQESGPGLVKPSETLSLTCTVSGASINSHYWSWIRQPPGKGLEWIGYVYYSGSTTYNPSLKSRVTLSVDTSKNQFSLNLSSVTAADTAFYYCARHPYDVLTGSGDWFDPWGQGTLVTVSS
VL: SYVLTQAPSVSVAPGQTARITCGGNAIGSKKVHWYQHKAGQAPVLVVYDDTDRPSGIPERFSGSNSWSTATLTINRVEAGDEADYYCQVWDFTIDHVVFGGGTKLTVL
B20: TCN-539 (5056_A08) (antibody, V domains shown)
VH: QVQLVESGGGVVQPGRSLRLSCAASEITFITYAMHWVRQAPGKGLEWVALISDDGSNKFYADSVKGRFTISRDNSKNTLYLQMNSLRAEDTAAYYCAREGVYFDSGTYRGYFDYWGQETLVTVSS
VL: EIVLTQSPATLSLSPGERATLSCRASQSVSSYLAWYQQKPGQAPRLLIYDASNRATGIPARFSGSGSGTDFTLTISSLEPEDFAVYYCQQRSHWPPITFGQGTRLEIK

Molecular target: Hemagglutinin of influenza A/Solomon Islands/3/06 (H1N1) on whole virions (Influenza A virus A/Solomon …)
Experiment: cell-based or functional assay

First: B1
Second: B2
The “% Neutralization” value of the first is higher: 57% for the first, 42% for the second.

Going from B3 to B4, the “% Neutralization” value rises from 87% to 100%.

Going from B5 to B6, the “% Neutralization” value falls from 94% to 69%.

Going from B7 to B8, the “% Neutralization” value rises from 48% to 78%.

Molecular target: hemagglutinin (HA) of live influenza A/Solomon Islands/3/06 (H1N1) virus (influenza A virus A/Solomon …)
Experiment: cell-based or functional assay

First: B9
Second: B10
The “% Neutralization” value of the first is higher: 65.7% for the first, 0% for the second.

Going from B11 to B12, the “% Neutralization” value rises from 81.6% to 88.6%.

Going from B13 to B14, the “% Neutralization” value rises from 3% to 98%.

Compared with B15, B16 is lower in “% Neutralization” value: 88% for the first, 21% for the second.

Molecular target: hemagglutinin (HA) of live influenza A/Wisconsin/67/05 (H3N2) virus (influenza A virus A/Wisconsin/67/2005 …)
Experiment: cell-based or functional assay

B9 and B10 are the same in “% Neutralization” value: 0% for the first, 0% for the second.

Compared with B11, B12 is lower in “% Neutralization” value: 99.9% for the first, 0% for the second.

Compared with B13, B17 is lower in “% Neutralization” value: 98% for the first, 97% for the second.

First: B14
Second: B15
The “% Neutralization” value of the first is lower: 73% for the first, 99% for the second.

First: B16
Second: B18
The “% Neutralization” value of the first is lower: 0% for the first, 100% for the second.

First: B19
Second: B20
The “% Neutralization” value of the first is higher: 100% for the first, 99% for the second.
